Experimental data taken from IntAct's records for PubMed 10545207.

B1: GTP-binding protein Rit2 (Mus musculus), P70425 (parent)
chain: MEVENEAHCCPGSSSGGSREYKVVMLGAGGVGKSAVTMQFISHQFPDYHDPTIEDAYKTQVRIDNEPAYLDILDTAGQAEFTAMREQYMRGGEGFIICYSVTDRQSFQEAAKFKELIFQVRHTYEIPLVLVGNKIDLEQFRQVSTEEGMNLARDYNCAFFETSAALRFGIDDAFQGLVREIRRKESMLSLVERKLKRKDSLWKKIKASLKKKRENML
partner: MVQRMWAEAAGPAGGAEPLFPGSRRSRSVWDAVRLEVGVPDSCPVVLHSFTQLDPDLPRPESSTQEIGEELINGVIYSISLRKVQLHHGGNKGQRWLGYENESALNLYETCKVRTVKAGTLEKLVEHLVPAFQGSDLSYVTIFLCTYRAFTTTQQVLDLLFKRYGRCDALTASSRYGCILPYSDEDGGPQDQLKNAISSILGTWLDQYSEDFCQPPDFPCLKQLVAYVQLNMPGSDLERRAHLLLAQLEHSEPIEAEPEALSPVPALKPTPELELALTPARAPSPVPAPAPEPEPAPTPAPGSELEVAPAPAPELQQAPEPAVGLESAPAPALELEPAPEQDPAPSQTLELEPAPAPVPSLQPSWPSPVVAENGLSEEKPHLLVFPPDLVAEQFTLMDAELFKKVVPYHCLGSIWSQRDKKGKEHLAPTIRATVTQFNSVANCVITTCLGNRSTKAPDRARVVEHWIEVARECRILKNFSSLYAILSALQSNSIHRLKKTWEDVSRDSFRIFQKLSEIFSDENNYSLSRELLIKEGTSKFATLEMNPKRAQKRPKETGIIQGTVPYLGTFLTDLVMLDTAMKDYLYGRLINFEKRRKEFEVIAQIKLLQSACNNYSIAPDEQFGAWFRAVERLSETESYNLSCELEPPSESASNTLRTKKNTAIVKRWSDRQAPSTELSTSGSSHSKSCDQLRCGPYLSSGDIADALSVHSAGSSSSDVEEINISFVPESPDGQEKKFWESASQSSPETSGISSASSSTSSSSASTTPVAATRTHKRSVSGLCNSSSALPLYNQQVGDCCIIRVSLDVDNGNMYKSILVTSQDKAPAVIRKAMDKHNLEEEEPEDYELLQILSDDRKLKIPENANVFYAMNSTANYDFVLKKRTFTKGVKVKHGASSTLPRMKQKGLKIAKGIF
B2: GTP-binding protein Rit2 (Mus musculus), P70425 (parent)
chain: B1 chain

Variants of: B1
Details: with gnds_human RALGDS

| Variant | effect of a mutation on the interaction |
| --- | --- |
| MEVENEAHCCPGSSSGGSREYKVVMLGAGGVGKNAVTMQFISHQFPDYHDPTIEDAYKTQVRIDNEPAYLDILDTAGQAEFTAMREQYMRGGEGFIICYSVTDRQSFQEAAKFKELIFQVRHTYEIPLVLVGNKIDLEQFRQVSTEEGMNLARDYNCAFFETSAALRFGIDDAFQGLVREIRRKESMLSLVERKLKRKDSLWKKIKASLKKKRENML [S34N] | decreasing interaction |

Variants of: B2
Details: with rlf_human RLF

| Variant | effect of a mutation on the interaction |
| --- | --- |
| MEVENEAHCCPGSSSGGSREYKVVMLGAGGVGKNAVTMQFISHQFPDYHDPTIEDAYKTQVRIDNEPAYLDILDTAGQAEFTAMREQYMRGGEGFIICYSVTDRQSFQEAAKFKELIFQVRHTYEIPLVLVGNKIDLEQFRQVSTEEGMNLARDYNCAFFETSAALRFGIDDAFQGLVREIRRKESMLSLVERKLKRKDSLWKKIKASLKKKRENML [S34N] | decreasing interaction |

Variants of: B2
Details: with afad_human AFDN

| Variant | effect of a mutation on the interaction |
| --- | --- |
| MEVENEAHCCPGSSSGGSREYKVVMLGAGGVGKNAVTMQFISHQFPDYHDPTIEDAYKTQVRIDNEPAYLDILDTAGQAEFTAMREQYMRGGEGFIICYSVTDRQSFQEAAKFKELIFQVRHTYEIPLVLVGNKIDLEQFRQVSTEEGMNLARDYNCAFFETSAALRFGIDDAFQGLVREIRRKESMLSLVERKLKRKDSLWKKIKASLKKKRENML [S34N] | decreasing interaction |
